Measurements as given in the supplement of paper PMC7125110.
± gives the standard error. For some of these results: This sample holds only a part of the variants without activity.

B1: glmS ribozyme (parent)
chain: AUAAAAGCGCCAGAACUACAGAAAUGUAGUUGACGAGGAGGAGGUUUAUCGAAUUUUCGGCGGAUGCCUCCAAA

Columns and labels:
Conditions in all cases: with glucosamine-6-phosphate
glucosamine-6-phosphate [1] = variants of: B1; experiment: kcat; higher = faster cleavage; RNA array
In short: (§1)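 Glucosamine-6-phosphate, from 40 μM to 10 mM in HEPES/KCl/Mg(OAc)2 buffer, was flowed over sequenced MiSeq chips carrying barcoded ribozyme variants transcribed in situ by E. coli RNA polymerase. A hybridised Cy3 probe tracked the variants at 37 °C as tiles were imaged over ~14 h. kobs, kcat and KM were obtained by fitting normalised per-tile medians to exponential decays and then applying weighted Michaelis–Menten fits across concentrations.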

glucosamine-6-phosphate [2] = variants of: B1; experiment: self-cleavage kobs at 40 uM GlcN6P; higher = faster cleavage; RNA array
In short: as §1

glucosamine-6-phosphate [3] = variants of: B1; experiment: self-cleavage kobs at 160 uM GlcN6P; higher = faster cleavage; RNA array
In short: as §1

glucosamine-6-phosphate [4] = variants of: B1; experiment: self-cleavage kobs at 2500 uM GlcN6P; higher = faster cleavage; RNA array
In short: as §1

glucosamine-6-phosphate [5] = variants of: B1; experiment: self-cleavage kobs at 10000 uM GlcN6P; higher = faster cleavage; RNA array
In short: as §1

glucosamine-6-phosphate [6] = variants of: B1; experiment: self-cleavage kobs at 640 uM GlcN6P; higher = faster cleavage; RNA array
In short: as §1

glucosamine-6-phosphate [7] = variants of: B1; experiment: KM; higher = weaker cofactor use; RNA array
In short: as §1

Row | Variant | kcat (glucosamine-6-phosphate [1]) [s⁻¹] | self-cleavage kobs at 40 uM GlcN6P (glucosamine-6-phosphate [2]) [s⁻¹] | self-cleavage kobs at 160 uM GlcN6P (glucosamine-6-phosphate [3]) [s⁻¹] | self-cleavage kobs at 2500 uM GlcN6P (glucosamine-6-phosphate [4]) [s⁻¹] | self-cleavage kobs at 10000 uM GlcN6P (glucosamine-6-phosphate [5]) [s⁻¹] | self-cleavage kobs at 640 uM GlcN6P (glucosamine-6-phosphate [6]) [s⁻¹] | KM (glucosamine-6-phosphate [7]) [µM]
1 | AUAAAGGCGCCAGAACUACAGAAAUGUAGUUGACGAGGAGGAGGUUUAUCGACAUUUCGGCGGAUGCCUCCAAA [A6G A53C U54A] | 5.34e-05 ± 9e-06 | < 1e-05 | < 1e-05 | 5.76e-05 ± 1.9e-05 | 4.91e-05 ± 9.2e-06 |  | 
2 | AUAAAAGCGCCAGAACUACAGAAAUGUAGUUGACGAGGAGGAGGUUUAUCGUAUUUUCGGCGGAUGCCUCAAAA [A52U C71A] | 0.000156 ± 2.6e-05 | < 1e-05 |  |  | 0.000144 ± 1.6e-05 | 5.96e-05 ± 1.3e-05 | 
3 | AUAAAAGCGCCAGAACUACAGAAAUGUAGUUGAGGAUGAGGAGGUUUAUCGAAUUUUCGGCGGAUGCCUCCAAA [C34G G37U] | < 1e-05 |  |  |  | < 1e-05 | < 1e-05 | 
4 | AUAAAAGCUCCAGAACUACAGAAAUGUAGUUGACGAGGUGGAGGUUUAUCGAAUUUUCGGAGGAUGCCUCCAAA [G9U A39U C61A] | 0.000456 ± 2.3e-05 |  | 0.000118 ± 4.8e-05 | 0.000376 ± 0.00013 | 0.00046 ± 0.00017 | 0.000243 ± 6.2e-05 | 503 ± 58
5 | AUAAAAGCGCCAGAACUACAGAAAUGUAGUUGACGACGAGGAGGUUGAUCGAAUUUUCGGCGGAUGCCUCCAAA [G37C U47G] | 1.63e-05 ± 2.9e-06 |  |  |  |  |  | 
6 | AUAAAAGCGCCAGAACUACAGAAAUGUAGUUAAUGAGGAGGAGGUUUAUCGAAUUUUCGGCGGAUGCCUCCAAA [G32A C34U] | < 1e-05 |  |  |  |  | < 1e-05 | 
7 | AUAAAAGCGCCAGAACUACAGAAAUGUAGAUGACGAGGAGGAGGUUUAUCGAAUUUUCGGCGGAGGCCUCCAAA [U30A U65G] | 0.00214 ± 0.00022 |  | 6.8e-05 ± 2.4e-05 | 0.000614 ± 0.00016 | 0.00141 ± 0.00016 | 0.000275 ± 8.9e-05 | 5250 ± 1000
8 | AUAAAAGCGCCAGAAAUACAGAAAUGUAGUGGACGAGGAGGAGGUUUAUCGAAUUUUCGGCGGAUGCCUCCAAA [C16A U31G] | 0.000292 ± 2.2e-05 |  | 4.15e-05 ± 1.7e-05 | 0.000177 ± 5e-05 | 0.000267 ± 4.3e-05 | 9.42e-05 ± 1.8e-05 | 1280 ± 200
9 | AUAAAAGCGCCAGAACUACAGAAAUGUAGUUGACGAGGGGGAGGAUUAUCGAAUUUUCGGCGGAUGCCUCCAAA [A39G U45A] | 0.0357 ± 0.011 | 0.00238 ± 0.00029 | 0.00768 ± 0.0018 | 0.061 ± 0.03 | 0.0497 ± 0.018 | 0.0157 ± 0.0034 | 581 ± 220
